In US20120269834A1, “IMMUNOGLOBULIN CLEAVAGE FRAGMENT VACCINE COMPOSITIONS” (priority 2010, published 2012):

Legend:
human IgG1 = human IgG1 (Homo sapiens, UniProt P01857); test: action of human and bacterial proteases on human IgG1 (Table 1); type: biochemical; settings: for Major Product: None = no detectable cleavage in 24 hours; for Cleaved Site: human IgG1 heavy chain, EU numbering
Method: Table 1 is a summary of the findings concerning the action of human proteases and two bacterial proteases on human IgG1. The term “Coagulation proteinases” refers to serum coagulation cascade proteins including; FXIIa, FIXa, FXa, thrombin and activated protein C; plasmin was plasminogen co-incubated with plasminogen activators; tPA, streptokinase and staphylokinase; “plasminogen activators alone” are without plasminogen; and the MMPs were recombinant proteinases obtained either as the active form or the pro-enzyme as detailed in the Materials; and “None” denotes no detectable cleavage in 24 hours. Except where indicated all enzymes where human. The residue designations are for the EU numbering system for the IgG1 antibody heavy chain where the 25 residues of SEQ ID NO: 1 corresponds to residues 219 through 243 of the complete mature heavy chain.

platelets [1] = test: circulating platelet counts in dogs; type: in vivo, dog; settings: for platelet clearance: dose finding
Method: First, the c7E3 antibody antigen binding and platelet depletion parameters were established in dogs.
c7E3 IgG and c7E3 IgG single-cleaved by IdeS protease were also compared in vivo. Three groups of 5 animals received either saline control, intact c7E3 IgG (0.05 mg/kg) or c7E3 single-cleaved IgG (0.05 mg/kg). Platelet counts were monitored at baseline and at 2, 24, 48, 72 and 96 hours post-administration. Limiting the study to 5 days minimized the likelihood of anti-c7E3 immune responses that might confound the interpretation of the results. The results are presented in FIG. 3 as the mean platelet count±SD for each animal group at each time point. The extent of the error bars connotes the normal variability of platelet counts in different animals (for example, the predose counts for the 5 animals in the single-cleaved IgG treatment group were 175,000, 355,000, 305,000, 276,000 and 334,000 per μL, respectively).
To be consistent with the prior experiments, the variants of c7E3 were all administered at the 0.05 mg/kg dose. The unique aspect of the experiment (groups 6 and 7) involves the infusion of the first targeting mAb followed by the cleavage site specific mAb after a 10 minute delay. The cleavage site specific IdeS cleavage site mAb, 2095-2, was administered at 0.5 mg/kg; 10-fold higher than the dose used for all of the c7E3 variants. The higher dose was chosen in order to maximize the complexation of cleavage site specific mAb with platelet-bound c7E3 variants. All mAbs were delivered by slow infusion over a 20 minute period. Platelet counts were monitored over a 96-hour period. The platelet counts were normalized to the pre-dose count within each animal for clarity of presentation and to minimize the normal variability in numerical platelet counts in these small 3-animal groups.

platelets [2] = test: circulating platelet counts in dogs; type: in vivo, dog; settings: dose finding
[3] = FIG. 12 study, groups of 3 animals, c7E3 variants 0.05 mg/kg, 2095-2 0.5 mg/kg

Sequence of human IgG1 (P01857 1-330 isoform P01857-1, other chains not shown): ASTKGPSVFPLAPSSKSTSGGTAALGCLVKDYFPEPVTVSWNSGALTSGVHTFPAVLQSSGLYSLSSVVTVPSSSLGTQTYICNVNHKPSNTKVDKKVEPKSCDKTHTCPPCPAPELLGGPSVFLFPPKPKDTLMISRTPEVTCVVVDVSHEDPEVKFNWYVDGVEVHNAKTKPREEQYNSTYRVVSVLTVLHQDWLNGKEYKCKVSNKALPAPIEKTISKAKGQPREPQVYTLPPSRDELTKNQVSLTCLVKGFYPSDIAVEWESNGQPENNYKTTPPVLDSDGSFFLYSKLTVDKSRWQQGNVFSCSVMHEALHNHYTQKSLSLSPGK

B1: Plasmin: plasminogen co-incubated with plasminogen activators (protein, UniProt P00747 20-580; P00747 581-810, looked up)
Plasmin heavy chain A: EPLDDYVNTQGASLFSVTKKQLGAGSIEECAAKCEEDEEFTCRAFQYHSKEQQCVIMAENRKSSIIIRMRDVVLFEKKVYLSECKTGNGKNYRGTMSKTKNGITCQKWSSTSPHRPRFSPATHPSEGLEENYCRNPDNDPQGPWCYTTDPEKRYDYCDILECEEECMHCSGENYDGKISKTMSGLECQAWDSQSPHAHGYIPSKFPNKNLKKNYCRNPDRELRPWCFTTDPNKRWELCDIPRCTTPPPSSGPTYQCLKGTGENYRGNVAVTVSGHTCQHWSAQTPHTHNRTPENFPCKNLDENYCRNPDGKRAPWCHTTNSQVRWEYCKIPSCDSSPVSTEQLAPTAPPELTPVVQDCYHGDGQSYRGTSSTTTTGKKCQSWSSMTPHRHQKTPENYPNAGLTMNYCRNPDADKGPWCFTTDPSVRWEYCNLKKCSGTEASVVAPPPVVLLPDVETPSEEDCMFGNGKGYRGKRATTVTGTPCQDWAAQEPHRHSIFTPETNPRAGLEKNYCRNPDGDVGGPWCYTTNPRKLYDYCDVPQCAAPSFDCGKPQVEPKKCPGR
Plasmin light chain B: VVGGCVAHPHSWPWQVSLRTRFGMHFCGGTLISPEWVLTAAHCLEKSPRPSSYKVILGAHQEVNLEPHVQEIEVSRLFLEPTRKDIALLKLSSPAVITDKVIPACLPSPNYVVADRTECFITGWGETQGTFGAGLLKEAQLPVIENKVCNRYEFLNGRVQSTELCAGHLAGGTDSCQGDSGGPLVCFEKDKYILQGVTSWGLGCARPNKPGVYVRVSRFVTWIEGVMRNN
modifications: plasmin
- Major Product (human IgG1): Fab + Fc
- Cleaved Site (human IgG1): Lys^223-

B2: Proteinase 3: human protease (protein, UniProt P24158 28-248, looked up)
Myeloblastin: IVGGHEAQPHSRPYMASLQMRGNPGSHFCGGTLIHPSFVLTAAHCLRDIPQRLVNVVLGAHNVRTQEPTQQHFSVAQVFLNNYDAENKLNDVLLIQLSSPANLSASVATVQLPQQDQPVPHGTQCLAMGWGRVGAHDPPAQVLQELNVTVVTFFCRPHNICTFVPRRKAGICFGDSGGPLICDGIIQGIDSFVIWGCATRLFPDFFTRVALYVDWIRSTLR
- Major Product (human IgG1): None

B3: Macrophage metalloelastase (MMP-12): recombinant human MMP (protein, UniProt P39900 106-470, looked up)
Macrophage metalloelastase: GPVWRKHYITYRINNYTPDMNREDVDYAIRKAFQVWSNVTPLKFSKINTGMADILVVFARGAHGDFHAFDGKGGILAHAFGPGSGIGGDAHFDEDEFWTTHSGGTNLFLTAVHEIGHSLGLGHSSDPKAVMFPTYKYVDINTFRLSADDIRGIQSLYGDPKENQRLPNPDNSEPALCDPNLSFDAVTTVGNKIFFFKDRFFWLKVSERPKTSVNLISSLWPTLPSGIEAAYEIEARNQVFLFKDDKYWLISNLRPEPNYPKSIHSFGFPNFVKKIDAAVFNPRFYRTYFFVDNQYWRYDERRQMMDPGYPKLITKNFQGIGPKIDAVFYSKNKYYYFFQGSNQFEYDFLLQRITKTLKSNSWFGC
- Major Product (human IgG1): F(ab′)2 +
- Cleaved Site (human IgG1): Pro^232-

B4: c7E3 IgG: anti-platelet integrin (αIIbβIIIa) murine-human IgG1 chimeric antibody (antibody, chains of the INN, looked up, V domains shown)
VH: EVQLQQSGTVLARPGASVKMSCEASGYTFTNYWMHWVKQRPGQGLEWIGAIYPGNSDTSYIQKFKGKAKLTAVTSTTSVYMELSSLTNEDSAVYYCTLYDGYYVFAYWGQGTLVTVSA
VL: EIVLTQSPVTLSVTPGDSVSLSCRASRDISNNLHWFQQTSHESPRLLIKYASQSMSGIPSRFSGSGSGTDFTLSINSVETEDFGMYFCQQTNSWPYTFGGGTKLEIK
modifications: IgG1
notes: anti-platelet integrin (αIIbβIIIa) murine-human IgG1 chimeric antibody
- platelet count recovery (platelets [1]; 0.05 mg/kg, by 96 hours): approximately 50 % of the pre-dose level
- time of platelet nadir (platelets [1]; 0.05 mg/kg, groups of 5 animals): 24 h
- effect on platelet numbers (platelets [1]; 0.05 mg/kg, groups of 5 animals, monitored to 96 hours): substantial decrease
- start of recovery of platelet numbers (platelets [1]; FIG. 12 study, 0.05 mg/kg): approximately 72 hours
- time of platelet nadir (platelets [1]; FIG. 12 study, 0.05 mg/kg): 24 to 48 h
- effect on platelet numbers (platelets [1]; [3]): substantial platelet clearance
- platelet clearance in pilot study (platelets [1]; after 24 hours, recovery over 5 days): profound platelet clearance
- αIIβ3 receptor blockade (platelets [1]; calculated for the 0.05 mg/kg dose): about 5%
- platelet clearance (platelets [1]; 0.05 mg/kg, 2 hours): little effect
- platelet clearance (platelets [1]; 0.05 mg/kg, 24 hours): > 90%
- time to platelet clearance (platelets [1]; doses >0.05 mg/kg): ≤ 24 h
- platelet clearance (platelets [2]; 0.01 mg/kg, 2 and 24 hours): ineffective
- platelet clearance (platelets [2]; 0.2 mg/kg, at 2 hours, maintained at 24 hours): profound platelet clearance

B5: c7E3 F(ab′)2: F(ab′)2 of c7E3 prepared using the bacterial enzyme IdeS (antibody, chains of the INN, looked up, V domains shown)
VH: EVQLQQSGTVLARPGASVKMSCEASGYTFTNYWMHWVKQRPGQGLEWIGAIYPGNSDTSYIQKFKGKAKLTAVTSTTSVYMELSSLTNEDSAVYYCTLYDGYYVFAYWGQGTLVTVSA
VL: EIVLTQSPVTLSVTPGDSVSLSCRASRDISNNLHWFQQTSHESPRLLIKYASQSMSGIPSRFSGSGSGTDFTLSINSVETEDFGMYFCQQTNSWPYTFGGGTKLEIK
modifications: F(ab')2 IdeS-generated
notes: F(ab′)2 of c7E3 prepared using the bacterial enzyme IdeS
- effect on platelet numbers (platelets [1]; [3]): without effect

B6: Chymase: human protease (protein, UniProt P23946 22-247, looked up)
Chymase: IIGGTECKPHSRPYMAYLEIVTSNGPSKFCGGFLIRRNFVLTAAHCAGRSITVTLGAHNITEEEDTWQKLEVIKQFRHPKYNTSTLHHDIMLLKLKEKASLTLAVGTLPFPSQFNFVPPGRMCRVAGWGRTGVLKPGSDTLQEVKLRLMDPQACSHFRDFDHNLQLCVGNPRKTKSAFKGDSGGPLLCAGVAQGIVSYGRSDAKPPAVFTRISHYRPWINQILQAN
- Major Product (human IgG1): None

B7: Cathepsin S: human cysteine endopeptidase (protein, UniProt P25774 115-331, looked up)
Cathepsin S: LPDSVDWREKGCVTEVKYQGSCGACWAFSAVGALEAQLKLKTGKLVSLSAQNLVDCSTEKYGNKGCNGGFMTTAFQYIIDNKGIDSDASYPYKAMDQKCQYDSKYRAATCSKYTELPYGREDVLKEAVANKGPVSVGVDARHPSFFLYRSGVYYEPSCTQNVNHGVLVVGYGDLNGKEYWLVKNSWGHNFGEEGYIRMARNKGNHCGIASFPSYPEI
- Major Product (human IgG1): None
